Experimental data from article PMC7290940.

Columns and labels:
Experiment in all cases: SEC; single purified protein on Superdex 200 10/300 GL, apparent mass against protein standards
[1] = target: untagged gp44 of bacteriophage 80α (Staphylococcus aureus bacteriophage 80α)
[2] = target: untagged CI immunity repressor of bacteriophage 80α (Staphylococcus aureus bacteriophage 80α)
[3] = target: full-length gp44 with C-terminal His6 tag (gp44–His), bacteriophage 80α (Staphylococcus aureus bacteriophage 80α)
[4] = target: gp44-NTD-His (gp44 residues 1–271) (Staphylococcus aureus bacteriophage 80α)

untagged gp44 of bacteriophage 80α (natural protein)
stoichiometry N [1]: 2

untagged CI immunity repressor of bacteriophage 80α (natural protein)
stoichiometry N [2]: 2

full-length gp44 with C-terminal His6 tag (gp44–His), bacteriophage 80α (natural protein)
stoichiometry N [3]: 2

gp44-NTD-His (gp44 residues 1–271) (domain or fragment)
stoichiometry N [4]: 2
